Data on one molecule can be found in patent publication US20200262889A1 (B G NEGEV TECHNOLOGIES AND APPLICATIONS LTD AT BEN GURION …, published 2020).

This assay concerns the target T1, mouse OAT-3 (oat3, slc22a8) (mouse, UniProt O88909 1-537).
T1 construct: whole, on cells; Expressed in HEK293T cells; coIP from lysates; not shown: myc-DDK tag of the pCMV6-Entry myc-DDK vector
T1 sequence (looked up): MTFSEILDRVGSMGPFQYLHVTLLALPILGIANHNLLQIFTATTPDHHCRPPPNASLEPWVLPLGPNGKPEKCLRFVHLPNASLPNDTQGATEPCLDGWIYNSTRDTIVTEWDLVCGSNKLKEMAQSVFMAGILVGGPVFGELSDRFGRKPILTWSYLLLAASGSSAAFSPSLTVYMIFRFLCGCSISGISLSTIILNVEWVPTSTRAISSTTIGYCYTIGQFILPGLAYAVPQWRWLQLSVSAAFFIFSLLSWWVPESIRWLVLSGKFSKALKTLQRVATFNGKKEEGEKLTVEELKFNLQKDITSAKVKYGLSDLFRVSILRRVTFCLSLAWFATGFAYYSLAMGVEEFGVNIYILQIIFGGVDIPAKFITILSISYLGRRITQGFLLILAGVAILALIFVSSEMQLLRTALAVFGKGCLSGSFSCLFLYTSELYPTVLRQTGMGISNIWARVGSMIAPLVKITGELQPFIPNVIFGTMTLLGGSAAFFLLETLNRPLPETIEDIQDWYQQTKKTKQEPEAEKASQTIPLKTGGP
Nature of the assay: coIP from HEK293T cells co-transfected with OAT-3 and IRBIT. An excerpt: To determine whether IRBIT regulates succinate efflux via interaction with OATs, the interaction of OAT-1 and/or OAT-3 with IRBIT was monitored by coIP. […] Succinate uptake was elevated by expression of OAT-1 alone, that was abolished by the OAT inhibitor probenecid (FIG. 6B-C). Neither IRBIT, SUCNR1 stimulation, nor inhibition of PLC by U73122 affected the OAT-mediated succinate uptake. These findings indicate that OAT-1 activity is IRBIT-independent.

B1: IRBIT (IP3 receptor-binding protein released with IP3; S-adenosylhomocysteine hydrolase-like protein) (other)
chain: SMPDAMPLPGVGEELKQAKEIEDAEKYSFMATVTKAPKKQIQFADDMQEFTKFPTKTGRRSLSRSISQSSTDSYSSAASYTDSSDDEVSPREKQQTNSKGSSNFCVKNIKQAEFGRREIEIAEQDMSALISLRKRAQGEKPLAGAKIVGCTHITAQTAVLIETLCALGAQCRWSACNIYSTQNEVAAALAEAGVAVFAWKGESEDDFWWCIDRCVNMDGWQANMILDDGGDLTHWVYKKYPNVFKKIRGIVEESVTGVHRLYQLSKAGKLCVPAMNVNDSVTKQKFDNLYCCRESILDGLKRTTDVMFGGKQVVVCGYGEVGKGCCAALKALGAIVYITEIDPICALQACMDGFRVVKLNEVIRQVDVVITCTGNKNVVTREHLDRMKNSCIVCNMGHSNTEIDVTSLRTPELTWERVRSQVDHVIWPDGKRVVLLAEGRLLNLSCSTVPTFVLSITATTQALALIELYNAPEGRYKQDVYLLPKKMDEYVASLHLPSFDAHLTELTDDQAKYLGLNKNGPFKPNYYRY
notes: The methods say only 'IRBIT in pcDNA3.1(+)'
On to B1, for which the binding result is listed as “no binding”.
